Residue numbers refer to the chain shown, from its start. Names and notes keep the numbering of the source. Where a SMILES comes first, the peptide text is derived from it. [ ]: non-standard residue; d: D form. The star is where a group is joined. Dolaproine = CO[C@@H]([C@@H]1CCCN1)[C@@H](C)C(=O)O; Dil = CC[C@H](C)[C@H](NC)[C@@H](CC(=O)O)OC; X1 = C[C@@H](N*)[C@@H](O)c1ccccc1; NMeV = CN[C@H](C(=O)O)C(C)C
B1: M830: TEM8 monoclonal antibody (hIgG1); VH SEQ ID NO:5, VL SEQ ID NO:6 (antibody, V domains shown)
VH: EVQLVESGGGVVQPGRSVRLSCAASGFTFSTYTMHWVRQAPGKGLEWVAIISNDGSNKYYADPVRGRFTISRDNSKNTLYLQMNSLRAEDTAVYYCVRGSSWYRGNWFDPWGQGTLVTVSS
VL: DIQMTQSPSSLSASVGDRVTIACRASQTISRYLNWYQQKPGKAPKLLIYAASSLQSGVSSRFSGSGSGTEFTLTISSLQPEDFATYFCQQTYSPPITFGQGTRLEIKR
modifications: TEM830 mAb VH; TEM830 mAb VL
B2: M830 Fc S239D:I332E double mutant: M830 with Fc substitutions S239D and I332E made to increase ADCC (antibody)
heavy: B1 VH
VL: B1 VL
modifications: left off: a dimerising Fc or GST
notes: M830 with Fc substitutions S239D and I332E made to increase ADCC
B3: M863: TEM8 monoclonal antibody (hIgG1); VH SEQ ID NO:7, VL SEQ ID NO:8 (antibody, V domains shown)
VH: EVQLVETGAEVKKPGASVKVSCKASGYTFTGYYMHWVRQAPGQGLEWMGWINPTSGSTNYAQKFQGRVTMTRDTSISTAYMELSGLRSDDTAVYYCVRDPGSPKWLAFDPWGQGTLVTVSS
VL: B1 VL with M4L, A22T, Q27R, T28A
modifications: TEM863 mAb VH; TEM863 mAb VL

Key:
[1] = tested on: OVCAR3 ovarian cancer model; test: M825 and M825-MMAE in OVCAR3 ovarian cancer model; assay type: in vivo, mice; settings: free MMAE at 0.2 mg/kg, equivalent to maximum MMAE in the 10 mg/kg ADC group
Experimental: Treatment initiated when tumor volume reached approximately 120 mm^3. M825 was given i.v. at 10 mg/kg and M825-MMAE was given i.v. at 1, 3, or 10 mg/kg, 2 times per week for 3.5 weeks. […] The 10 mg/kg ADC group was redosed on Day 56, 2 times per week.

[2] = tested on: H460 human non-small cell lung carcinoma xenograft; test: M830 alone and with gemcitabine, cisplatin or radiation in H460 human non-small cell lung carcinoma xenograft model; assay type: in vivo, nude mice; settings: 58-day study, survival (TTE), logrank
Description: (§1) The statistical tests were not adjusted for multiple comparisons.
Treatment began on Day 1 in eight groups of nude mice (n=10) with established subcutaneous H460 tumors of 75-126 mm^3. […] The study endpoint was a tumor volume of 2000 mm^3 or the final day, Day 58, whichever came first. […] The median TTE for controls was 15.6 days, establishing a maximum possible TGD of 42.4 days (272%) for the 58-day study.

hTEM8-AP = test: Biocore affinity measurements of anti-TEM8 Fabs, hTEM8-AP; assay type: binding, human; settings: Fab
[3] = Pharmacokinetics of TEM8 antibodies in mouse, single dose; assay type: in vivo
Description: (§2) Tables 8 and 9 show pharmacokinetic properties of TEM8 antibodies according to the present invention in mouse for single dose (Table 8) and multiple dose (Table 9) treatments.

3T3 fibroblasts = test: Contractility of 3T3 fibroblasts in the presence of TGFb-1; assay type: cell-based
Experimental: 3T3 cells were cultured and contractility in the presence of TGFb-1 was measured in control or M825 exposed cells. […] Contractile forces are thought to contribute to increased cancer cell invasion.

[4] = Pharmacokinetics of TEM8 antibodies in mouse, multiple dose; assay type: in vivo
Description: as §2

UACC melanoma cells = test: TEM8 antibody efficacy in UACC melanoma model; assay type: in vivo, mice; settings: 15 mg/kg, 3 times per week for 3-4 weeks; treatment initiated at 50 mm^3
Experimental: UACC melanoma cells were cultured and injected subcutaneously into mice. Treatment was initiated with a tumor volume of 50 mm^3, and treatment groups consisted of one of four TEM8 antibodies (M825, M830, M863, and M822), each dosed at 15 mg/kg, 3 times per week for 3-4 weeks.

[5] = tested on: H460 non-small cell lung carcinoma xenograft; test: M830 alone and with bevacizumab or paclitaxel in the H460 non-small cell lung carcinoma xenograft model; assay type: in vivo, athymic nude mice; settings: combination partner Paclitaxel
Experimental: Animals were monitored for regression responses.
as §1
Cultured H460 cells were harvested during exponential growth and resuspended in phosphate buffered saline at a concentration of 1×10^8 cells/mL. 1.0×10^7 tumor cells were injected subcutaneously into the flank of athymic nude mice. Animals were euthanized when tumors reached the pre-determined volume endpoint of 2000 mm^3 or on the final day (Day 88), whichever came first. […] Each treatment produced a significant survival difference versus controls (P<0.01). The median TTE for controls was 22.8 days, establishing a maximum possible TGD of 65.2 days (286%) for the 88-day study.

FcγRIIIa (CD16a) = FcγRIIIa (CD16a) (Homo sapiens, UniProt P08637); test: Binding of M830 Fc mutant to FcγRIIIa (ADCC); settings: Fc mutant form compared with M830
Description: Fc mutations which increase ADCC are known in the art. For example, substitutions in the IgG constant region such as S239D, A330L, and I332E are known to increase binding to the FCy receptor. (see, e.g., Lazar et al., Proc. Natl., Acad. Sci. U.S.A., 103:4005-4010, 2006). In the present example, the M830 Fc S239D:I332E double mutant was generated and confirmed by standard molecular biology techniques (830M: S239D/I332E).

Sequence of hTEM8-AP (Q9H6X2 33-321): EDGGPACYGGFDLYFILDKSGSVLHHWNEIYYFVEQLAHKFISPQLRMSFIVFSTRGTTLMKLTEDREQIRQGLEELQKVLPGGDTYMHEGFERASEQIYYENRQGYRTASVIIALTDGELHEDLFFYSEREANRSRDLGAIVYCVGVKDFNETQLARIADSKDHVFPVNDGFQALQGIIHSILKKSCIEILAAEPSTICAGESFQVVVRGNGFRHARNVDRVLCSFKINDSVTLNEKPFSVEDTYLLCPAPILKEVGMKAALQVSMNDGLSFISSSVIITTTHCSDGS
Sequence of FcγRIIIa (CD16a) (P08637 17-254): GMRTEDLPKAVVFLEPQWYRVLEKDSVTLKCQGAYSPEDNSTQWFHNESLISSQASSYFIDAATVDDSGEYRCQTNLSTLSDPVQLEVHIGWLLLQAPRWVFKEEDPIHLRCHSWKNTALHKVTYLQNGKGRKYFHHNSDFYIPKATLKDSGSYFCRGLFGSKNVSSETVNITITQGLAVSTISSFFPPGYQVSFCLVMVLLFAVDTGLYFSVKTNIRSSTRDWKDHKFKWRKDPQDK

Row | Molecule | outcome compared to vehicle-treated controls [2] | AUCI ([3]; 5 mg/kg) [µg·h/mL] | AUCT ([3]; 5 mg/kg) [µg·h/mL] | AUCT ([3]; 15 mg/kg) [µg·h/mL] | AUCI ([4]; 5 mg/kg) [µg·h/mL] | AUCT ([4]; 5 mg/kg) [µg·h/mL] | AUCI ([4]; 15 mg/kg) [µg·h/mL] | AUCT ([4]; 15 mg/kg) [µg·h/mL] | further results
1 | CC[C@H](C)[C@@H]([C@@H](CC(=O)N1CCC[C@H]1[C@H](OC)[C@@H](C)C(=O)N[C@H](C)[C@@H](O)c1ccccc1)OC)N(C)C(=O)[C@@H](NC(=O)[C@@H](NC)C(C)C)C(C)C [MMAE, reference compound] (H-[NMeV]V[Dil][Dolaproine]-X1) | – | – | – | – | – | – | – | – | effect in OVCAR3 model [1]: No effect
2 | N.N.[Cl][Pt][Cl] [Cisplatin, cisplatin] | statistically significant survival benefit | – | – | – | – | – | – | – | –
3 | Nc1ccn([C@@H]2O[C@H](CO)[C@@H](O)C2(F)F)c(=O)n1 [gemcitabine] | not statistically different from vehicle-treated controls | – | – | – | – | – | – | – | –
4 | M825: TEM8 monoclonal antibody (hIgG1); VH SEQ ID NO:1, VL SEQ ID NO:2 [Antibody M825] | – | 1310.519 | 1310.222 | 8991.767 | 1408.345 | 1408.201 | 21649.446 | 21648.879 | Kd (hTEM8-AP): 59.1 pM; AUCI ([3]; 15 mg/kg): 9239.202 µg·h/mL; contractility of activated 3T3 fibroblasts in vitro (3T3 fibroblasts): block the contractility
5 | B1 | not statistically different from vehicle-treated controls | 2242.485 | 2242.286 | 10692.598 | 4316.79 | 4315.918 | 23053.875 | 23052.853 | Kd (hTEM8-AP): 1570 pM; tumor growth in the UACC melanoma model (UACC melanoma cells): effective at slowing tumor growth; AUCI ([3]; 15 mg/kg): 10692.742 µg·h/mL; regression (with % Tumor Reduction vs. Vehicle at Day 21) [5]: −61%
6 | B2 | – | – | – | – | – | – | – | – | binding to FcγRIIIa (CD16a) (FcγRIIIa (CD16a)): significantly enhanced binding
7 | B3 | – | 1330.847 | 1330.742 | 10721.535 | 1425.735 | 1425.565 | 7272.672 | 7271.7 | –

From patent publication US10758613B2, “Combination therapies using anti-metabolites and agents that target tumor-associated stroma or tumor cells” (BIOMED VALLEY DISCOVERIES, INC., priority 2014, dated 2020)
